Consider two substances from patent publication US20180271995A1, “A PROTEIN CONJUGATE COMPRISING MULTIPLE PHYSIOLOGICALLY ACTIVE POLYPEPTIDES AND AN IMMUNOGLOBULIN FC REGION” (HANMI PHARM. CO., LTD., priority 2015, published 2018).

For experiment [1], the target named is human GLP-1 receptor (human) (UniProt P43220). Nature of the experiment: cell-based or functional assay.
In experiment [2] the target is human insulin receptor β (human) (UniProt P06213). Nature of the experiment: cell-based or functional assay.
In experiment [3] the test system is mouse-derived 3T3-L1 cell line differentiated into adipocytes. Nature of the experiment: Glucose uptake test in 3T3-L1 cells differentiated into adipocytes (GOPOD residual glucose). It counts as cell-based. To be noted: 3T3-L1 adipocytes, 24 hours; read-out: Glucose uptake (Insulin) EC50. The method, then: First, for analyzing the titer of insulin, a glucose uptake (or lipid synthesis ability) test was conducted using the mouse-derived 3T3-L1 cell line differentiated into adipocytes. […] The 3T3-L1 cell line was suspended in the medium for differentiation (DMEM containing 10% FBS), inoculated into a 48-well plate to a concentration of 5×10^4 cells/well, and cultured at 37° C. for 48 hours. […] The mixtures was added to each well in an amount of 250 μL/well after removing the existing medium.
For the glucose uptake test, the cells terminally differentiated into adipocytes were washed once with serum-free DMEM medium and serum-free DMEM medium was added into each well in an amount of 250 μL to induce serum depletion for 4 hours. […] Each of the thus-prepared samples was added to the cells in an amount of 250 μL, respectively, and cultured in a 5% CO2 incubator at 37° C. for 24 hours. For the measurement of the residual amount of glucose in the medium upon completion of cultivation, 200 μL of the medium was collected, diluted 5-fold with D-PBS, respectively, and subjected to GOPOD analysis (GOPOD Assay Kit, Megazyme, Cat. No. K-GLUC). The residual glucose concentration in the medium was calculated based on the absorbance of the standard glucose solution, and EC50 values for each of the samples with respect to glucose uptake ability was calculated and the result is shown in Table 9 below.

Values joined by “and” are separate entries in the source; they are usually repeats but may differ in a detail not shown here. Identical values can stand only once. Some results are limits rather than exact numbers.

In experiment [1], Immunoglobulin Fc gave a cAMP assay EC50 above 100 nM. Also, the IR-β phosphorylation EC50 in experiment [2] is above 1000 nM. What is called EC50 is the concentration at which the effect is half-maximal. Consider human insulin, for which the half-maximal effective concentration (EC50) in experiment [3] was 9 nM and 11 nM.
